Data on 3 molecules can be found in paper PMC8691648, “Heterophilic and homophilic cadherin interactions in intestinal intermicrovillar links are species dependent” (PLoS Biology, 2021).

Series [1] has as its target mm PCDH24 EC1-2Fc (mouse). In words: SPR; OpenSPR (Nicoya); mm PCDH24 EC1-2Fc immobilised on a Protein A sensor chip (>800 RU); mm CDHR5 EC1-2 injected at 2 to 23.5 uM; 20 mM Tris HCl pH 7.5, 150 mM NaCl, 50 mM KCl, 2 mM CaCl2, 0.5 mM TCEP, 1% BSA; 20 uL/min; kinetic fit, 1:1 model. Background: Surface plasmon resonance follows binding to a sensor surface in real time, without labels.

Series [2] concerns the molecule itself. In words: bead aggregation assay; homophilic; Protein G Dynabeads coated with one Fc fusion captured from concentrated serum-free medium and washed; 50 mM Tris pH 7.5, 100 mM NaCl, 10 mM KCl, 0.2% BSA, 2 mM CaCl2; 60 min on a depression slide, then rocking 1 to 2 min.
Series [3] concerns the molecule itself. In words: crystal structure; contacts between copies of one fragment in the crystal (asymmetric unit or symmetry mates); vapor diffusion at 4 °C.

The term Kd denotes a measure of binding affinity in units of concentration. Higher therefore signals lower affinity. In turn, mm CDHR5 EC1-2 (domain or fragment) showed a Kd in series [1] of 16 µM.

B1: hs PCDH24 EC1-MAD10Fc (Fc fusion, human)
chain: NVAPKFLANMTSVILPEDLPVGAQAFWLVAEDQDNDPLTYGMSGPNAYFFAVTPKTGEVKLASALDYETLYTFKVTISVSDPYIQVQREMLVIVEDRNDNAPVFQNTAFSTSINETLPVGSVVFSVLAVDKDMGSAGMVVYSIEKVIPSTGDSEHLFRILANGSIVLNGSLSYNNKSAFYQLELKACDLGGMYHNTFTIQCSLPVFLSISVVDQPDLDPQFVREFYSASVAEDAAKGTSVLTVEAVDGDKGINDPVIYSISYSTRPGWFDIGADGVIRVNGSLDREQLLEADEEVQLQVTATETHLNIYGQEAKVSIWVTVRVMDVNDHKPEFYNCSLPACTFTPEEAQVNFTGYVDEHASPRIPIDDLTMVVYDPDKGSNGTFLLSLGGPDAEAFSVSPERAVGSASVQVLVRVSALVDYERQTAMAVQVVATDSVSQNFSVAMVTIHLRDINDHRPTFPQSLYVLTVPEHSATGSVVTDSIHATDPDTGAWGQITYSLLPGNGADLFQVDPVSGTVTVRNGELLDRESQAVYYLTLQATDGGNLSSSTTLQIHLLDINDNAPVVSGSYNIFVQEEEGNVSVTIQAHDNDEPGTNNSRLLFNLLPGPYSHNFSLDPDTGLLRNLGPLDREAIDPALEGRIVLTVLVSDCGEPVLGTKVNVTITVEDINDNLPIFNQSSYNFTVKEEDPGVLVGVVKAWDADQTEANNRISFSLSGSGANYFMIRGLVLGAGWAEGYLRLPPDVSLDYETQPVFNLTVSAENPDPQGGETIVDVCVNVKDVNDNPPTLDVASLRGIRVAENGSQHGQVAVVVASDVDTSAQLEIQLVNILCTKAGVDVGSLCWGWFSVAANGSVYINQSKAIDYEACDLVTLVVRACDLATDPGFQAYSNNGSLLITIEDVNDNAPYFLPENKTFVIIPELVLPNREVASVRARDDDSGNNGVILFSILRVDFISKDGATIPFQGVFSIFTSSEADVFAGSIQPVTSLDSTLQGTYQVTVQARDRPSLGPFLEATTTLNLFTVDQSYRSRLQFSTPKEEVGANRQAINAALTQATRTTVYIVDIQDIDSAARARPHSYLDAYFVFPNGSALTLDELSVMIRNDQDSLTQLLQLGLVVLGSQESQESDLSKQLISTVPRARDPPV
notes: protocadherin-24 (PCDH24, also CDHR2), human, full-length extracellular domain EC1 to MAD10; DNA cloned with the signal peptide, protein secreted; numbers count on: the mature protein; linker between the PCDH24 fragment and the Fc tag in the CMV vector; also called Fc-tagged full-length hs PCDH24 extracellular domain; human protocadherin-24; not shown: Fc, C-terminal, kept
For the molecule B1, the binding result in series [2] is recorded as “binds”.

B2: hs PCDH24 EC1-2 (mammalian-produced, form II crystal) (domain or fragment, human)
chain: NVAPKFLANMTSVILPEDLPVGAQAFWLVAEDQDNDPLTYGMSGPNAYFFAVTPKTGEVKLASALDYETLYTFKVTISVSDPYIQVQREMLVIVEDRNDNAPVFQNTAFSTSINETLPVGSVVFSVLAVDKDMGSAGMVVYSIEKVIPSTGDSEHLFRILANGSIVLNGSLSYNNKSAFYQLELKACDLGGMYHNTFTIQCSLPVFLSISVVDQPDLDTVPRARDPPVGG
modifications: N-linked glycosylation at N9
notes: protocadherin-24 (PCDH24, also CDHR2), human, repeats EC1-2; DNA cloned with the signal peptide in a CMV vector, protein secreted; the structure includes residues N1 to D218; numbers count on: the mature protein; The range is that of the residues in the structure; The crystallised sample also held mammalian-produced hs CDHR5 EC1-2, which is not in the structure; also called Hs PCDH24 EC1-2 II; …
As for B2, the binding result in series [3] is on record as “binds”.
